Data as given in patent US20230039279.

Columns and labels:
[1] = test system: MMP-9 sensitive peptide (GPRSLSG-RRCG) linked ibuprofen
[2] = test system: cleavable peptide (1) GCRR-KGPRSLSGK-RRCG
[3] = test system: peptide (3), crosslinker based on substrate AVRWLLTA
[4] = test system: non-cleavable scrambled peptide GCRR-KSSRGGPLK-RRCG
[5] = test system: MMP-9 peptide substrate M2, GRCR-GPRSLSG-RCRG

Chain of matrix-metalloprotease-9 (MMP-9), 83 kDa, Merck (chain, as listed by the source): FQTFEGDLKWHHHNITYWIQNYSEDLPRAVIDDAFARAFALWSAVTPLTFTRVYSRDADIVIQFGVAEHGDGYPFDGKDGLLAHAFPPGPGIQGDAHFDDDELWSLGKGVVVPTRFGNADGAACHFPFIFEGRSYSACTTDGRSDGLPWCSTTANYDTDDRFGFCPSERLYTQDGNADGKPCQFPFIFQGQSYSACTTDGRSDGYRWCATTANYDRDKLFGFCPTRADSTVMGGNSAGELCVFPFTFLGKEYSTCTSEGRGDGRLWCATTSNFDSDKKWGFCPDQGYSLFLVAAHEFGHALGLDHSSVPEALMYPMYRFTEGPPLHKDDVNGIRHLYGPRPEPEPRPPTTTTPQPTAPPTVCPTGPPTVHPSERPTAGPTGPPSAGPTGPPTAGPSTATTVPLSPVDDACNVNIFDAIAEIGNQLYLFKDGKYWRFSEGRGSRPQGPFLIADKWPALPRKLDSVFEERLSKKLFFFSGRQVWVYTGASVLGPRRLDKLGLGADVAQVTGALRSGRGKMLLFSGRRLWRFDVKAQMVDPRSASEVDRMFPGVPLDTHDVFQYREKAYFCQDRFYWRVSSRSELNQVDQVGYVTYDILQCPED

| Substance | specificity of protease-triggered ibuprofen liberation (FIG. 10B) [1] | cleavability of hybrid hydrogel (release of PLGA particles into the medium after 20 h with 3 µg/ml MMP-9) (peptide (7)) | cleavability of hybrid hydrogel (release of PLGA particles into the medium after 20 h with 3 µg/ml MMP-9) (peptide (5)) | cleavability of hybrid hydrogel (release of PLGA particles into the medium after 20 h with 3 µg/ml MMP-9) (peptide (4)) | cleavability of hybrid hydrogel (release of PLGA particles into the medium after 20 h with 3 µg/ml MMP-9) [2] | cumulative drug release from GEL-iP after 4 hours with 3 µg/ml MMP-9 [2] | cleavability of hybrid hydrogel (release of PLGA particles into the medium after 20 h with 3 µg/ml MMP-9) [3] | cleavability of hybrid hydrogel (release of PLGA particles into the medium after 20 h with 3 µg/ml MMP-9) (peptide (6)) | cleavability of hybrid hydrogel (release of PLGA particles into the medium after 20 h with 3 µg/ml MMP-9) (peptide (2)) | ultimate cumulative drug release at 48 hours from the dual-responsive conjugate hydrogel, MMP-9 alone (2 µg/ml) [1] | cumulative drug release from scrGEL-iP after 4 hours with 3 µg/ml MMP-9 [4] | degradation of H2-M2 combinational hydrogel and release of PLGA particles over 24 hours [5] | LC-MS detection of the liberated fragment in the supernatant after 2 days of hydrogel exposure to MMP9 solution (ibu-GPQGIWGQ-DRCG) |
| --- | --- | --- | --- | --- | --- | --- | --- | --- | --- | --- | --- | --- | --- |
| cathepsin B | the peptide sequence, GPRSLSGRRCG (SEQ ID NO: 20), as a spacer illustrated a good specificity toward MMP-9 compared to cathepsin B and human neutrophil elastase (HNE) |  |  |  |  |  |  |  |  |  |  |  |  |
| matrix-metalloprotease-9 (MMP-9), 83 kDa, Merck | the peptide sequence, GPRSLSGRRCG (SEQ ID NO: 20), as a spacer illustrated a good specificity toward MMP-9 compared to cathepsin B and human neutrophil elastase (HNE) | hybrid hydrogels crosslinked with peptides (1), (4), (5) and (7) could be digested by MMP-9 | hybrid hydrogels crosslinked with peptides (1), (4), (5) and (7) could be digested by MMP-9 | hybrid hydrogels crosslinked with peptides (1), (4), (5) and (7) could be digested by MMP-9 | hybrid hydrogels crosslinked with peptides (1), (4), (5) and (7) could be digested by MMP-9 | exposing GEL-iP to MMP-9 for 4 hours significantly boosted the cumulative drug release to 100% compared to only 25% in the absence of MMP-9 | hydrogels formed with peptides (2), (3), and (6) were not cleaved upon exposure to MMP-9 | hydrogels formed with peptides (2), (3), and (6) were not cleaved upon exposure to MMP-9 | hydrogels formed with peptides (2), (3), and (6) were not cleaved upon exposure to MMP-9 | the ultimate cumulative release achieved 71% | only 40% was released from the hybrid hydrogel crosslinked by the scrambled peptide (scrGEL-iP) at the same condition | H2 and M2 peptide substrates were preferentially cleaved by HNE and MMP-9 proteases respectively | LC-MS analysis confirmed the presence of the liberated ibuprofen bearing fragment (ibu-GPQG, LC peak at elution time of 14.6 min, MS peak at m/z=546.20) |
